Measured values reported in patent publication US20190134196A1 (GMAX BIOPHARM, published 2019).
Changes are numbered by the printed parent chain.

T1: human endothelin A receptor (human, UniProt P25101 21-427)
T1 construct: For the calcium flux assay it was co-expressed with aequorin in CHO-DHFR cells; also called hETAR; human ETAR
T1 sequence: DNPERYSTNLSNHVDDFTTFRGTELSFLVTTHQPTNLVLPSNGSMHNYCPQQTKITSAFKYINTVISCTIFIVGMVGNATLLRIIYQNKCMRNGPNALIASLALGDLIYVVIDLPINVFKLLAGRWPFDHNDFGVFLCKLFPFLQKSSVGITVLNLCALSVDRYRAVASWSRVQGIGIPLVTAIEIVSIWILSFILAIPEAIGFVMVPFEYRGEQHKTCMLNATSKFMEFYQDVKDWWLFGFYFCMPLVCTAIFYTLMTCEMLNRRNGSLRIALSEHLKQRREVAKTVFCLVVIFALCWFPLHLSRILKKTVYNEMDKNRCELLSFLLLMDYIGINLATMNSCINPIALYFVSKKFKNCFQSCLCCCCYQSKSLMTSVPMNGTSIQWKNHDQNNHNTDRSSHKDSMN

B1: ETAR antibody A-2 (antibody, V domains shown)
VH: QIQLVQSGAELAKPGASVRMSCETSGYTFTSYWIHWIKERPGQGLEWIGYINPDTDYSEYNQKFKDKARLTADKSSTTAYMELNSLTFDDSAVYYCASAGYYFFDFWGQGTTLTVSS
VL: DIQMTQSPASLSTSVGETVTITCRASENIYSYLAWYQQRQGKSPHLLVNNAKTLAEGVPSRFSGSGSGTHFSLRISGLQPEDFGSYYCQHHYGIPFTFGGGTKLSIKR
notes: Recombinant antibody; also called L2H2
B2: ETAR antibody A-9 (antibody, V domains shown)
VH: EVQLQQPGGGLVQPGGSLTLSCATSGFTFSSYGMSWVRQTPAKRLELVATISTNGATANYPDSVKGRFTISRDNAKSTLYLQMRSLKSEDTAMYYCATEKGAMGYWGQGTSVTVSS
VL: DVLMTQTPLSLPVSLGDQASISCRSSQNIVHSTGNTYLEWYLQKPGQSPKLLIYKVSNRFSGVPNRFRGSGSGTDFTLKITRVEAEDLGIYYCFQGSHFPFTFGSGTKLEIKR
B3: ETAR antibody A-7 (antibody, V domains shown)
VH: EVHLVESGGGLVQPGGSLKLSCAASGFTFSTYGMSWVRQTPDKRLELVATINTNGGTTYYRDSVKGRFTISRDNAKNTLYLQMSSLKSDDTAMYYCARDYGAMDYWGQGTSVTVSS
VL: B2 VL with Q18H, N28Y, N35T, K50Q, N65D, R68T, K79R, T81S, I90V, Y92F
notes: Recombinant antibody; also called L7H7
B4: ETAR antibody A-12 (antibody, V domains shown)
VH: EVKLVESGGRLVQPGNSLRLSCATSGFTFSDYYMSWVRQTPGRALEWLSFIRNRANGYTTEYSASVKGRFTISRDNSQSILYLHMSTLRPEDSATYYCVRDSYHYGYFDVWGAGTTVTVSS
VL: EIQMTQTPSSLSASLGDRVTITCSASQGINNYLNWYQQKPGGKTRLLIYYTSTLQSGVPSRFSGSGSGTHYSLTISNLEPEDIATYYCQQFSKLRTFGGGTRLEIKR
notes: Recombinant antibody; also called L12H12

Columns and labels:
[1] = molecular target: T1, human endothelin A receptor; experiment: FACS on CHO-DHFR-ETAR cells, CHO-DHFR- cells as negative control
[2] = molecular target: T1, human endothelin A receptor; experiment: cell-based or functional assay

Binder | binding result [1] | IC50, calcium flux assay (inhibition of human ETAR) [2] [nM]
B1 | binds | 
B2 |  | 87.8
B3 | binds | 
B4 | binds | 
